From the supplement of paper PMC9170038

These sequences were tested on MS2 coat protein (assay: apparent KD of MS2 coat protein; higher = weaker reporter binding). Settings: Eterna round: R107; input ligand: theophylline 20 uM.
How it was run: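 Binding of SNAP-549-labelled MS2 coat protein was measured on designed RNA switches transcribed on-chip from Illumina sequencing clusters. The protein rose in twofold steps from 0.7 or 1.5 nM to 3 µM, with 0.8–1.5 h per step early on and 10–20 min per step later, in 100 mM Tris-HCl pH 7.5, 80 mM KCl, 4 mM MgCl2, without or with constant ligand. Each design's apparent KD is the median of fits to its normalised cluster binding curves.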

Sequence	apparent KD of MS2 coat protein [nM]
CUGACGGACUCGGCCGCCACUGAUAGUAGGACAUGAGGAUCACCCAUGUAAACGAACCUCAUAGCCAGGACCGGGAGUCACGAAG [Same State Tryptophan B GF 22]	189
AAUAAUAUGAGGAUCACCCAUAUAAAAGAUACCAGAGUGAUGAUCCUCCCUUGGCAGCUUAACGCUGAUUGAUUACAAUCAGCGA	85
GCAUCCUAGUCGGCCGCCACUGACAUGAGGAUCACCCAUGUACAUGAGGAUCACCCAUGUUGUAACAGGACCGGGACUAGGAUGC [SS Tryp B #18]	112
AUGUCGUUGAAUACAGCGGCAUGGUGUGAUACCAGAAUGAUCAAAUUCCCUUGGCAGCAUCACAUGAGGAUCACCCAUGUUAAGG [SSTheo A #17]	50
AUUCCAUAGGUGCAGUUGUUAAAUGGCGAUACCAGCGUGGAAACACGCCCUUGGCAGCGCCAAAACAUGAGGAUCACCCAUGUUA [Kladno]	111
CACGAAAGAUCGGCCGCCACUAAUCUAUGUGUACUAGCACAUGAGGAUCACCCAUGUUCUUGCGUUAGGACCGGGAUUGAGCGUG [#03 Exclusion Tryptophan B]	27.6
AAACAUUGCUGCGAUACCAGACAUGAGGAUCACCCAUGUACCAAGAAAACGUACAUAAAUGUCCCUUGGCAGCGCAGCAAUGAAA [MAT - Exclusion Theophlline B - Mod of Eli - D27]	514
GACAUAUGCUAUGCGCAGGCUACCCUCAGCCGAGGACCGGUACGGCCGCCACUCGUACUACCACAUGAGGAUCACCCAUGUUAUC [theeternabot_exclusion_MS2_Trp_A_29]	28.4
AUUAUAGUUUAUAACGAAGUUGAUACAGAAGGAGCGUGAAUAAUCACAGGUAGGUCGCUGAUAAUACAUGAGGAUCACCCAUGUU [JR_Nu_SSArginiA_Sub018]	31.9
UGCUAGUGAUCGGCCGCCACUGGCACCUUGAGGAUCCUGCUAAAGUACAUGAGGAUCACCCAUGUCAGGACCGGGAUCAUCAGUG [Onveusonri]	11.8
UAGUCCGCGACGGCCGCCACUCGCUGAUGCACAUGUGUCCGGGACAUGAGGAUCACCCAUGUUUCGAGGACCGGGUCGAUCCUAA [Same State Tryptophan B GF 5]	81.5
GUCUGUGACUGAAGGAGCGACAUGAGGAUCACCCAUGUCUCCCGUUAUGGGAGUUCCUUAGGUCAGGUAGGUCGCAGUCACAGAC [#1 Exclusion - Arginine B Attempt #28 (Inspired by Omei)]	137
CGGUAACCACAUGAGGAUCACCCAUGUGAAGGAGCGGCGAAUAAGCCAGGUAGGUCGCGCAUGAAUAAAUCAUGUUGGUGCCGAA [XArg-A 16 NuPack]	121
AGACAUGAGGAUCACCCAUGUAGUAUGGAUACCAGAUCCAGAUUUAUCCCUUGGCAGCUGUGGUACAGCGUUGCAUCGCUCCUAG [Exclusion - Theophylline A (Freestyle 13)]	44.5
CUGGCAGGAUGAUCCGCUGUCAGGGCUGAUACCAGCCACGAAAGUGGCCCUUGGCAGCAGCAAACAUGAGGAUCACCCAUGUAAA [(T)''-(M)'-(T)'-(Theo)-(Ms2)_Design2]	230
GCUGGGUGCGCAAGGACCUGGCGUUGCGAUACCAGCACGGUAACGUGCCCUUGGCAGCGCACAUGAGGAUCACCCAUGUGGUGUU [#1 Exclusion - Theophylline A Attempt #19 (HarryS)]	360
GUUGGACUUUCGGCCGCCACUGAGAGAGUCAUGUGAACAUGAGGAUCACCCAUGUAAUAUAUAUACAGGACCGGGAGGGUUGUAA [4.M]	22
UGGGUACAUGAGGAUCACCCAUGUACUGAAGGAGCGGGACGAAUCUCAGGUAGGUCGCAGACAUGAGGAUCACCCAUGUAGUGGA [Exclusion Arginine A GF 15]	17.8

Same assay, conditions: Eterna round: R107; input ligand: theophylline 2 mM

Sequence	apparent KD of MS2 coat protein [nM]
UGCCCUGCGAGCGCUCGCAGGGCAGCGGAUACCAGCGAGGUCCAUCGCCCUUGGCAGCCGAACAUGAGGAUCACCCAUGUCGGUG [Same State - Theophylline A Attempt #9 (HarryS)]	144
GUCCUAGCGAGCGCUCGCUAGGACGCGGAUACCAGCGAGGUCCAUCGCCCUUGGCAGCCGAACAUGAGGAUCACCCAUGUCGGUA [#1 Same State - Theophylline A Attempt #16 (HarryS)]	13.4
GGUUGGUGUGGAGACAUAUUGAUCACUGAAGGAGCGGGAAUAAACCCAGGUAGGUCGCAGAGAUCCACAUGAGGAUCACCCAUGU [!0.Q]	86.6
ACACAUGAGGAUCACCCAUGUGCGCUGGAAGGAGCGCAGAAUCAUGCAGGUAGGUCGCCAGUGCCCUUCGAUAAAGGGAAAAGAG [Erbienes]	106
GGUCUCUGGAGCGAUACCAGCUUAAAUGUACUGGCCAGGUACAUGAGGAUCACCCAUGUAAGCCCUUGGCAGCGCUCCAGAGACC [#1 Exclusion - Theophylline B Attempt #13 (HarryS)]	39.2
ACAUGAGACAUGGAUACCAGCGACAUGAGGAUCACCCAUGUAUGAGGAUCACCCAUGUUAUGCCCUUGGCAGCCACAAACAUGAG [.PLMULLINP]	147
GGGCGCGUGGACCGGCGUGCUCCGCUCCGUCGAGGACCGGUACGGCCGCCACUCGACAUGAGGAUCACCCAUGUGCGAGCUCGCG [#1 Exclusion - Tryptophan A Attempt #15 (HarryS)]	32.1
GGAUAGGACAGAAGGAGCGUGAGAUGCAUACCUUCAUUCCUCACAUGAGGAUCACCCAUGUCACAGGUAGGUCGCUGUCCUAUCG [#20 Exclusion - Arginine B]	96.5
UACAUGAGGAUCACCCAUGUCCCAUGUGAACGAGGACCGGUACGGCCGCCACUCGACCGAGGCGGCACAUGAGGAUCACCCGCAU [whbob_SS_trypto A_2s15]	1140
GGAAUAAUGGCGGCCGCCACUAACUCAUAUACAUCAUGUACAUGAGGAUCACCCAUGUAGGUGUAUAGGACCGGGCCAUAAUUCC [39MS split4]	25.1
UGGUACAUGAGGAUCACCCAUGUCCUCAUCCGAGGACCGGUACGGCCGCCACUCGAAAUUGCGAUCGGCACAAAACAAAUGCUUG [theeternabot_sameState_MS2_Trp_A_39]	179
AGAGCAUUGACGGCCGCCACUUAUGUCACAUGAGGAUCACCCAUGUGAUGGGUGAUAGCCCGGUUGAGGACCGGGUCAAUGCUCA [Omei Tryp SS B v6]	15.2
CUGACGGACUCGGCCGCCACUGAUAGUAGGACAUGAGGAUCACCCAUGUAAACGAACCUCAUAGCCAGGACCGGGAGUCACGAAG [Same State Tryptophan B GF 22]	410
AAUAAUAUGAGGAUCACCCAUAUAAAAGAUACCAGAGUGAUGAUCCUCCCUUGGCAGCUUAACGCUGAUUGAUUACAAUCAGCGA	234
GCAUCCUAGUCGGCCGCCACUGACAUGAGGAUCACCCAUGUACAUGAGGAUCACCCAUGUUGUAACAGGACCGGGACUAGGAUGC [SS Tryp B #18]	141
CACGAAAGAUCGGCCGCCACUAAUCUAUGUGUACUAGCACAUGAGGAUCACCCAUGUUCUUGCGUUAGGACCGGGAUUGAGCGUG [#03 Exclusion Tryptophan B]	24
